As usually defined, the EC50 is the concentration at which the effect is half-maximal. Low readings indicate higher potency in that assay, high ones lower potency in that assay. In general, Kd refers to a measure of binding affinity in units of concentration. Low values mean tighter binding, high ones weaker binding.

Test [1] addresses native CLPTM1 in membrane-permeabilised O-876 cells (Homo sapiens (Human)) (UniProt O96005). The test can be described thus: flow cytometry on permeabilised O-876 cells; half-maximal binding.
Test [2] shares this target. Kind of test: flow cytometry on permeabilised O-876 cells, 10x dilution series; half-maximal binding. Background: Flow cytometry measures light scatter and fluorescence of single cells or particles in a stream.
The target in test [3] is T1, native CLPTM1 in membrane-permeabilised O-876 cells (Homo sapiens (Human), UniProt O96005 2-669).
T1 construct: The protein was stained inside permeabilised cells, not only at the surface; also called native target; 0-876 cells expressing native CLPTM1
T1 sequence: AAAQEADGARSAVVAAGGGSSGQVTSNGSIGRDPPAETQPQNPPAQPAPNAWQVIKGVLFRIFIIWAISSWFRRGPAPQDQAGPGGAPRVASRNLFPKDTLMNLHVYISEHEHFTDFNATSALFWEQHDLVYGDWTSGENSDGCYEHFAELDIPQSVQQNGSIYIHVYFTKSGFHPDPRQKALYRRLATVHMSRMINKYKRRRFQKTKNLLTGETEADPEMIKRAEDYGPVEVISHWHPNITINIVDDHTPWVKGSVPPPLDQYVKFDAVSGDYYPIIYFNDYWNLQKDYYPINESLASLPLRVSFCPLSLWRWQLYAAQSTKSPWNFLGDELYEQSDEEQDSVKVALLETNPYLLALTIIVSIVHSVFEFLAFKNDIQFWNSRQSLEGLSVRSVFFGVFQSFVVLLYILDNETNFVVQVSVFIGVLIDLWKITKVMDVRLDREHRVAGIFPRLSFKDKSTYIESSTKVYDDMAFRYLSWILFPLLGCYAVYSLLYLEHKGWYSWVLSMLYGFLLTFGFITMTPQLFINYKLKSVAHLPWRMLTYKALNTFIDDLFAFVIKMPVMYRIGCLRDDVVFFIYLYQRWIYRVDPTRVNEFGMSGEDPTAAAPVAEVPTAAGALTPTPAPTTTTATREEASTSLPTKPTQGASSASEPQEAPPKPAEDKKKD
Described as above. The procedure:
CLPTM1 binding in permeabilised 0-876 cells expressing native CLPTM1 was measured in a 10× dilution series. […] The AbCam antibody also retained greater than 50% of its maximum binding at 0.1 μg/ml. The 59D04 antibody retained greater than 50% of its maximum binding at 1 μg/ml, whilst the Santa Cruz antibody had less than 50% of its maximum binding at this level.
Affinity of antibodies was determined by finding the half-maximal binding on the native target in a flow cytometry assay. Since the native target is found inside most cells and rarely on the cell surface, the assay was performed using plasma membrane-permeabilised cells, an intra-cellular staining protocol. Using the native target is more applicable when evaluating and comparing various antibodies as it is the true antigen to be bound in a therapeutic setting in vivo. 0-876 cells were permeabilised with BD-fix and permeabilisation buffer (554722 BD-Biosciences). Antibody at various concentrations was incubated with cells for 30 minutes at +4° C., then washed twice with wash buffer (BD-Biosciences 554723). […] Three washes followed and fluorescence intensity in cells was quantified by FACS CantoII in PBS with cells in 2% FCS buffer.

Test [4] addresses T1, native CLPTM1 in membrane-permeabilised …. Kind of test: flow cytometry on permeabilised O-876 cells; half-maximal binding. The procedure:
(§1) Affinity of antibodies was determined by finding the half-maximal binding on the native target in a flow cytometry assay. Since the native target is found inside most cells and rarely on the cell surface, the assay was performed using plasma membrane-permeabilised cells, an intra-cellular staining protocol. Using the native target is more applicable when evaluating and comparing various antibodies as it is the true antigen to be bound in a therapeutic setting in vivo. 0-876 cells were permeabilised with BD-fix and permeabilisation buffer (554722 BD-Biosciences). Antibody at various concentrations was incubated with cells for 30 minutes at +4° C., then washed twice with wash buffer (BD-Biosciences 554723). Secondary antibodies a-mouse IgG-PE (Molecular Probes) was used for mouse monoclonal antibodies according to manufacturer's instructions and a-rabbit-IgG-PE (Molecular Probes) for rabbit monoclonal antibody (Abcam ERP8800). Three washes followed and fluorescence intensity in cells was quantified by FACS CantoII in PBS with cells in 2% FCS buffer.
(§2) The assay was performed on O-876 cancer cell line.

The target is the same in test [5]. The test can be described thus: flow cytometry on permeabilised O-876 cells, antibody dilution series, PE-labelled secondary antibody. The procedure: as §1, §2

Consider “rabbit monoclonal anti-CLPTM1 antibody EPR8800 (RabMab, Abcam)”, for which the EC50 in test [1] is below 1 µg/mL; in test [2], below 0.1 µg/mL.

B1: anti-CLPTM1 antibody 59D04 (format in the assay not stated) (antibody, V domains shown)
VH: EVQLVESGGGVVQPGRSLRLSCAASGFTFSTYAMHWVRQAPGKGLEWVAVISYDGTNKYYADSVKGRFTIFRDNSKNTLYLQMNSLRAEDTAVYYCGSGSYWGQGTLVTVSS
VL: QPVLTQPASVSGSPGQSITISCTGTSSDVGGYNYVSWYQQHPGKAPKLMIYEVTNRPSGVSDRFSGSKSGNTASLTISGLQAEDEADYYCSSYKSSNTVVFGGGTKVTVL
notes: Fully human antibody derived by phage display
B1: the 50% effective concentration (EC50) in test [3] is below 1 µg/mL.

B2: anti-CLPTM1 mouse monoclonal antibody 7G12 (antibody, IgG1, V domains shown)
VH: QVQLQQSGTELVRPGTSVKVSCKASGYAFTNYLIEWVKQRPGQGLEWIGVINPGSGGTRYNEKFKGKATLTADKSSTTAHMQLSSLTSDDSAVYCARWGGNYSGYAMDYWGQGTSVTVSS
VL: QIVLTQSPVIMSASPGEKVTITCSASSSVSYMHWFQQKPGTSPKLWIYSTSNLASGVPARFSGSGSGTSYSLTISRMEAEDAATYYCQQRSSYPPTFGAGTKL
notes: Mouse monoclonal, IgG1 heavy chain, kappa light chain; The printed VL ends in 'TKL.' and may be incomplete; also called CLPTM1 clone 7G12 (IgG1)
Consider B2, for which the EC50 in test [4] is below 1 µg/mL; in test [3] it was below 0.1 µg/mL. In test [5], this molecule came in with a Kd below 1 nM.

Source of the values: patent publication US20190343962A1 (GENAGON THERAPEUTICS, published 2019).
